Measurements published in US20110005523A1, “Pharmaceutical Polypeptide Dry Powder Aerosol Formulation and Method of Preparation” (published 2011).
Where “and” joins values, the source holds several entries; their conditions need not be identical. Identical values can stand only once.

Columns and labels:
[1] = target: T1, IL-4 receptor (Homo sapiens (Human), UniProt P24394); experiment: cell-based or functional assay
[2] = target: T1, IL-4 receptor; experiment: cell-based or functional assay; remark: listed apart in the source

B1: human interleukin-4 mutein met-R121D/Y124D (ligand)
chain: MHKCDITLQEIIKTLNSLTEQKTLCTELTVTDIFAASKNTTEKETFCRAATVLRQFYSHHEKDTRCLGATAQQFHRHKQLIRFLKRLDRNLWGLAGLNSCPVKEANQSTLENFLERLKTIMDEKDSKCSS
[1]
  Functionality by Bioassay (specific activity), EC 50 (nM); stability batch, 1 month (5° C.): 0.178 nM and 0.138 nM
  Functionality by Bioassay (specific activity), EC 50 (nM); stability batch, 1 month (30° C./65%): 0.191 nM and 0.184 nM
  Functionality by Bioassay (specific activity), EC 50 (nM); stability batch, 3 month (5° C.): 0.302 nM
  Functionality by Bioassay (specific activity), EC 50 (nM); stability batch, 3 month (30° C./65%): 0.3 nM
  Functionality by Bioassay (specific activity), EC 50 (nM); stability batch, T0: 0.246 nM and 0.263 nM
  Functionality by Bioassay, Standard EC 50 (nM); reference standard: 0.264 nM and 0.194 nM and 0.305 nM
[2]
  Mean EC50, nM (TF1 bioassay; 1-Spray Dry Powder): 0.496 nM
  Mean EC50, nM (TF1 bioassay; 2-Spray Dry Powder): 0.518 nM
  Mean EC50, nM (TF1 bioassay; 3-Spray Dry Powder): 0.577 nM
  Mean EC50, nM (TF1 bioassay; 4-Spray Dry Powder): 0.555 nM
  Mean EC50, nM (TF1 bioassay; mIL-4 Standard): 0.524 nM
